Numbered stars: 1 amine (or outer) side, 2 acyl side, 3 side chain; on linkers, the order of the positions; unused ones are H or OH. Square brackets hold non-standard residues; d marks the D form. Ends that are not written are not given here. Pqa = 4-oxo-6-(1-piperazinyl)-3(4H)-quinazoline-acetic acid, O=C(Cn1cnc2ccc(N3CCN([*:1])CC3)cc2c1=O)[*:2]; NMeR = CN[C@@H](CCCNC(=N)N)C(=O)O
Columns and labels:
[1] = Dig-peptide serum kinetic (Western blot of digoxigenylated PYY in serum); assay type: in vivo, mice (strain NRMI)
Experimental: Serum samples were stored at −80° C.
The determination of the amount of digoxigenylated peptide in the serum at the given time points was difficult compared to the detection of Dig-Cy5 as no direct means to detect the polypeptide in serum samples was available. Therefore, a Western-Blot related assay to detect digoxigenylated peptide in serum was established. In a first step, the serum samples were separated on reducing SDS-PAGE. Because sample preparation included exposure of the serum to high concentrations of SDS and reducing agents, complexed Dig-polypeptide conjugates can become released from the (completely denatured/unfolded) anti-digoxigenin antibody, whereas covalently conjugates remained bound. To mediate the release of the polypeptide from the non-covalent antibody complex and separate the individual components by SDS-PAGE, 2 μl of each serum sample was diluted in 18 μl 20 mM histidine/140 mM NaCl pH 6.0, mixed with 6.7 μl of 4×LDS sample buffer and 3 μl of 10× sample reducing agent (NuPAGE, Invitrogen) for 5 min at 95° C. As a control, 2 μl of serum of an untreated mouse of the same strain was used. Samples were applied to a 4-12% Bis-Tris Gel (NuPAGE, Invitrogen) which was run at 200 V/120 mA for 20 minutes using 1×MES (Invitrogen) as a running buffer. Subsequently, separated polypeptides were blotted onto a PVDF membrane (0.22 μm pore size, Invitrogen) using the XCell Sure Lock® Mini-Cell system (Invitrogen) for 40 min at 25 V/130 mA. Membranes were blocked in 1% skim milk in 1×PBS+1% Tween20 (PBST) for 1 h at RT. Digoxigenylated polypeptides were subsequently detected on the membrane with an anti-digoxigenin antibody. For that, anti-digoxigenin antibody was applied to the membranes in a concentration of 13 μg/ml in 10 ml of 1% skim milk/PBST for 2 h at RT. Membranes were washed for 3×5 min in 1×PBST. Anti-mouse IgG Fab-fragments coupled to POD from the LumiLight^PLUS Western Blotting Kit (Roche) was applied in a 1:25 dilution in 10 ml of 1% skim milk/PBST for 1 h at RT. […] Chemiluminescence was detected with the LumiImager F1 (Roche) with an exposure time of 20 min.

NPY2R = biological target: T1, NPY2R (Homo sapiens, UniProt P49146); assay: effect on Y2Receptor family: NPY2R; assay type: cell-based
T1 sequence (P49146 1-381): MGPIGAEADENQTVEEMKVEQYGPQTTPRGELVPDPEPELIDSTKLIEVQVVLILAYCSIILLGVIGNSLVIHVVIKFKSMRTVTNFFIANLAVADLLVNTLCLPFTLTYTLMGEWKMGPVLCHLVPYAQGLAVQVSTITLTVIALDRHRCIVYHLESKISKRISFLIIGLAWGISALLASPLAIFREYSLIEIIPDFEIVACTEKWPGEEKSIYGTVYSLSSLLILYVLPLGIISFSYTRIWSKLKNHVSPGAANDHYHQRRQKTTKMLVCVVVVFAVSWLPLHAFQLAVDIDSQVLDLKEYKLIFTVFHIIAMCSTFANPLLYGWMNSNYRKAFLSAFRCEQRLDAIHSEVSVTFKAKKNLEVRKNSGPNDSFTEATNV

NPY1R = biological target: T2, NPY1R (Homo sapiens, UniProt P25929); assay: effect on Y2Receptor family: NPY1R; assay type: cell-based
T2 sequence (P25929 1-384): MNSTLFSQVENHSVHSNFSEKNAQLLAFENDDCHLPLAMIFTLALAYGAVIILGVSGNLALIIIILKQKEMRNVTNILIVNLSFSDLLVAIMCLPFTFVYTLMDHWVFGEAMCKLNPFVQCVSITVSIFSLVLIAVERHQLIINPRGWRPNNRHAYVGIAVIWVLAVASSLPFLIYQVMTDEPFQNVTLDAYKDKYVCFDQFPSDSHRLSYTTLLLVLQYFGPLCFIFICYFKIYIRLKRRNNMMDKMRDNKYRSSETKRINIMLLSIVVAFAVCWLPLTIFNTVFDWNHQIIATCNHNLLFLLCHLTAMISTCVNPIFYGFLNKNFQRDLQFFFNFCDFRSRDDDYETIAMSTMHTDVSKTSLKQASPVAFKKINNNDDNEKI

NPY4R = NPY4R (Homo sapiens, UniProt P50391); assay: effect on Y2Receptor family: NPY4R; assay type: cell-based
Sequence of NPY4R (P50391 whole entry, species assumed): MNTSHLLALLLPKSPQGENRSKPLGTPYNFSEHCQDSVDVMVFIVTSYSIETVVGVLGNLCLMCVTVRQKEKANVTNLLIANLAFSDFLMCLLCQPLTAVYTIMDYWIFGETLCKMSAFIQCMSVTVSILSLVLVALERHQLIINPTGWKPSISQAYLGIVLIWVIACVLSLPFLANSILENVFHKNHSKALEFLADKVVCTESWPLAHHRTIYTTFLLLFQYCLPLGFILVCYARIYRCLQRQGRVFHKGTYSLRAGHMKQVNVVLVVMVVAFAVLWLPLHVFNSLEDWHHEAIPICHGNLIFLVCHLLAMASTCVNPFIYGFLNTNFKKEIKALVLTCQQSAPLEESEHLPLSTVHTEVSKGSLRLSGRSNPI

NPY5R = biological target: T3, NPY5R (Homo sapiens, UniProt Q15761); assay: effect on Y2Receptor family: NPY5R; assay type: cell-based
T3 sequence (Q15761 1-445): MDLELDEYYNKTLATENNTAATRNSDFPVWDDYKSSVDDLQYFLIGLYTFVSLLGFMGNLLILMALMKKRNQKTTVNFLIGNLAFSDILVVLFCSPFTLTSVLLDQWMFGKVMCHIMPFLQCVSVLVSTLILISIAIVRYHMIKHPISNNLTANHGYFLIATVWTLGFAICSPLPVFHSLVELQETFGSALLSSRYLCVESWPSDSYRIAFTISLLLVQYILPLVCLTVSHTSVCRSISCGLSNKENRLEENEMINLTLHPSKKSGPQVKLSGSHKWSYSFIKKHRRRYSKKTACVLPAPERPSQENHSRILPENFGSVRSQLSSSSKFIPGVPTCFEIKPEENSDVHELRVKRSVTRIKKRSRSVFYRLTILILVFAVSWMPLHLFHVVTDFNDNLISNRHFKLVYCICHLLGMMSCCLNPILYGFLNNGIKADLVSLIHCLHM

[2] = biological target: anti-helicar motif amino acid sequence antibody; assay: binding [Kd] of PYY peptides by anti-helicar antibody; settings: PYY peptide bound by anti-helicar antibody

Substance | digoxigenylated polypeptide signal in serum ([1]; 5 min after administration) | digoxigenylated polypeptide signal in serum ([1]; later time points up to 24 hrs.) | half-life in the serum ([1]; mouse, in vivo) | NPY2R (NPY2R) | NPY1R (NPY1R) | NPY4R (NPY4R) | NPY5R (NPY5R) | Kd [2]
DIG-PYY: digoxigenylated PYY polypeptide | only in trace amounts | no defined polypeptide band was detectable | very short half-life |  |  |  |  | 
Ac-Ile-Lys-Pqa-Arg-His-Tyr-Leu-Asn-Trp-Val-Thr-Arg-Gln-(NMe)-Arg-Try-NH2 * 4 HOAc (Ac-IK[Pqa]RHYLNWVTRQ[NMeR]Y-NH2; also: 4 HOAc salt) [reference compound] |  |  |  | 1.0 nM | inactive | inactive | inactive | 
IKPEAPGEDASPEAHLANEVARLHYLNLVTRQRY-NH2 [PYY_helicar] |  |  |  | 6.38 nM |  | inactive | inactive | 12 nM

Reference: patent US10407511B2, “Covalently linked helicar-anti-helicar antibody conjugates and uses thereof” (Hoffmann-La Roche Inc., priority 2014, dated 2019)
